Five molecules from publication PMC6828947, “The Cotton GhWRKY91 Transcription Factor Mediates Leaf Senescence and Responses to Drought Stress in Transgenic Arabidopsis thaliana” can be followed below.

Data set [1] has as its target T1, GhWRKY91 (Gossypium hirsutum (CCRI10), UniProt A0A068LD65 1-273). Briefly: EMSA; LightShift Chemiluminescent EMSA Kit (Thermo Scientific); buffer, salt, pH and temperature not stated. As to conditions: protein: recombinant; tags: N-terminal GST, removed by digestion after purification; label: biotin end label. A general note: In EMSA bound probe runs differently from free probe, usually more slowly.

Data set [2] has as its target T1, GhWRKY91. As to the kind of experiment: competition; excess unlabelled probe against labelled GhWRKY17 probe; LightShift Chemiluminescent EMSA Kit (Thermo Scientific); buffer, salt, pH and temperature not stated. The note with it: protein: recombinant; tags: N-terminal GST, removed by digestion after purification.

T1 sequence (A0A068LD65 entry or part of it): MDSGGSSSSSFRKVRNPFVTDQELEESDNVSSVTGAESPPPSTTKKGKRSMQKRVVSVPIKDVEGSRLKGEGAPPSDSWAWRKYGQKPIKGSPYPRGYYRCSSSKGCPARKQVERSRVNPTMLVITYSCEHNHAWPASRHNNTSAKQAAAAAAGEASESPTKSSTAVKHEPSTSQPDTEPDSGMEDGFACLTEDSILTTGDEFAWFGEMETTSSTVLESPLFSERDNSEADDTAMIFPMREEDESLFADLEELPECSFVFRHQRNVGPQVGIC

B1: GhWRKY17 promoter W-box probe (dsDNA)
DNA 1: AATTTCAAACGGCTAATCCCCACCTTTTGACCTTATCTCTTGTCAGTGACCCA
DNA 2: TGGGTCACTGACAAGAGATAAGGTCAAAAGGTGGGGATTAGCCGTTTGAAATT
With B1, in the data set with GhWRKY91 [1], the binding result is given as “binds”.

B2: GhWRKY17 promoter W-box probe, unlabelled competitor (dsDNA)
DNA 1: B1 DNA 1
DNA 2: B1 DNA 2
For B2, the binding result in the data set with GhWRKY91 [2] was “binds”.

B3: GhWRKY27a promoter W-box probe (dsDNA)
DNA 1: GCGACTTGGTCAGCAATTGGAGTTTTGACCTTACCTCACTCTTCAGTCCAC
DNA 2: GTGGACTGAAGAGTGAGGTAAGGTCAAAACTCCAATTGCTGACCAAGTCGC
B3: in the data set with GhWRKY91 [1], the binding result is reported as “no binding”.

B4: GhAPX1 promoter W-box probe (dsDNA)
DNA 1: TCCCCGACGTTCCGACAAGTTTTGACTATTTTATTTTCTTAAAATAAAAAGC
DNA 2: GCTTTTTATTTTAAGAAAATAAAATAGTCAAAACTTGTCGGAACGTCGGGGA
As for B4, the binding result with GhWRKY91 [1] is on record as “no binding”.

B5: GhWRKY68 promoter W-box probe (dsDNA)
DNA 1: GCACTGTTCAATATCCGTACAAGTGGTTGACCTACAATTGCCCGTCGATCC
DNA 2: GGATCGACGGGCAATTGTAGGTCAACCACTTGTACGGATATTGAACAGTGC
In the case of B5, in the data set with GhWRKY91 [1], the binding result is recorded as “no binding”.
